Data from article PMC12316308, “Interactions of substrates and phosphinyl containing inhibitors with bacterial and human zinc proteases” (PLOS One, 2025).
The star is where a group is joined. Dnp = O=[N+]([O-])c1ccc(*)c([N+](=O)[O-])c1; Mca = COc1ccc2c(CC(=O)*)cc(=O)oc2c1

Tests used:
[1] = target: T1, ALN (Staphylococcus aureus, UniProt P81177); format: biochemical; parameters: purchased BioCentrum Ltd (Kraków, Poland)
Method: (§1) Determination of reaction velocities. The substrate ES001 was used for APMA activated MMP-9 (MMP-9(A)), Mag-Trypsin activated MMP-9 (MMP-9(MT)) and MMP-14, while the substrate ES005 was used for ALN, PLN and TLN. The reaction velocities/initial rates (v) were determined at 37°C, at an excitation wavelength of 320 nm and an emission wavelength of 405 nm with a slit width of 10 nm using either a Perkin Elmer LS 50 Luminescence spectrometer and the FL WinLab Software Package (Perkin Elmer) or a Clario Star micro plate reader (CLARIOstar® BMG LABTECH).
(§2) To compare the activity of these enzymes against ES001 and ES005 assays were conducted using the same assay condition for all enzymes. The differences from the testing of phosphinic compounds described in the Material and Methods section were that DMSO was omitted, and the concentration of both substrates was 10 µM. A Perkin Elmer LS50 Luminescence Spectrometer was used to measure the activity. Reactions were monitor for one minute, and initial reaction velocities were determined from the activity curves. For each enzyme, the reaction with the presumed optimal substrate was performed first at an arbitrary enzyme concentration, followed immediately by the reaction with the alternate substrate using the same enzyme concentration.

[2] = target: T2, PLN (Pseudomonas aeruginosa, UniProt P14756); format: biochemical; parameters: purchased Calbiochem (San Diego, CA, USA)
Method: as §1, §2

[3] = target: T1, ALN; details: 1% DMSO, less certain due to substrate quenching above 10 µM; cited from earlier work
[4] = target: T3, thermolysin (TLN) (Bacillus thermoproteolyticus, UniProt P00800); experiment: MALDI-TOF MS analysis of ES005 cleavage; format: biochemical; details: 50 µM ES005, 10 nM TLN, 5 minutes, 37°C
T3 construct: purchased Calbiochem (San Diego, CA, USA)
Method: MALDI-TOF MS spectra were recorded for samples containing different enzyme and substrate concentrations at various time points using an Autoflex Speed instrument (Bruker Daltonik GmbH, Leipzig, Germany) equipped with a 355-nm nitrogen laser for desorption and ionization. The ionization matrix, HCCA, was dissolved to 10 mg/mL in a standard solvent (50% MeCN, 47.5% MQ-water, and 2.5% TFA) by vigorous vortexing. Prior to the MALDI run, a main buffer (0.1 M Hepes, pH 7.5, 10 mM CaCl2) was used to dilute TLN to stock concentrations of 1000, 100 and 50 nM, ES005–500 µM, and galardin to 10 µM. All stocks solutions were kept on ice. For the 0 min incubation, 1 µL TLN and 1 µL galardin were preincubated at 37°C in 8 µL of the main buffer for 10 min before adding 1 µL of ES005. For all other time points, 1 µL of ES005 was added to tubes containing 8 µL buffer and 1 µL of TLN at different concentrations, followed by incubation at 37°C. At each timepoint (0, 1, 3, 5, 10, 20, 30, 60, 120 min), 1 µL of galardin was added to stop enzyme activity. After the final incubation, 1 µL aliquots from each timepoint were mixed with an equal volume of HCCA and spotted onto a MALDI plate. […] The resulting mass spectra were analysed using flexAnalysis software (v3.3, Bruker).

[5] = target: T2, PLN; details: 1% DMSO, less certain due to substrate quenching above 10 µM; cited from earlier work
[6] = target: T4, TLN (Bacillus thermoproteolyticus, UniProt P00800); experiment: Enzymatic activity against ES001 and ES005; format: biochemical; parameters: purchased Calbiochem (San Diego, CA, USA); details: 10 µM substrate, DMSO omitted, n = 4
T4 sequence (P00800 233-548): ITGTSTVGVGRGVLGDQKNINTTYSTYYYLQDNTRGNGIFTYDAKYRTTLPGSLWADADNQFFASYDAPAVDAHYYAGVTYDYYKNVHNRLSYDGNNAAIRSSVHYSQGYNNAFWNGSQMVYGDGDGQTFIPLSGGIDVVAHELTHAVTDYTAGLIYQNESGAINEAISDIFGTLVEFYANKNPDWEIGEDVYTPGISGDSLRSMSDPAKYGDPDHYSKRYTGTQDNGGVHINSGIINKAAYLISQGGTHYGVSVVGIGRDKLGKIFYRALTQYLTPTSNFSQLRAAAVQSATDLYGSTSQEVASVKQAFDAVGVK
Method: as §1, §2

[7] = target: T5, MMP-14 (Homo sapiens, UniProt P50281); experiment: Enzymatic activity against ES001 and ES005; format: biochemical; details: 10 µM substrate, DMSO omitted, n = 4
T5 construct: human MT1-MMP/MMP-14 (catalytic domain); purchased Calbiochem (San Diego, CA, USA)
Method: as §1, §2

[8] = target: T6, MMP-9(MT) (Homo sapiens, UniProt P14780); experiment: Enzymatic activity against ES001 and ES005; format: biochemical; details: 10 µM substrate, DMSO omitted, n = 4
T6 construct: made in house; host or cells: Sf9 and High Five insect cells
Method: as §1, §2

[9] = target: T7, MMP-9(A) (Homo sapiens, UniProt P14780); experiment: Enzymatic activity against ES001 and ES005; format: biochemical; details: 10 µM substrate, DMSO omitted, n = 4
T7 construct: made in house; host or cells: Sf9 and High Five insect cells
Method: as §1, §2

[10] = target: T4, TLN; details: 1% DMSO; cited from earlier work
[11] = 10 µM substrate, DMSO omitted, n = 4

T1 sequence (P81177 209-509): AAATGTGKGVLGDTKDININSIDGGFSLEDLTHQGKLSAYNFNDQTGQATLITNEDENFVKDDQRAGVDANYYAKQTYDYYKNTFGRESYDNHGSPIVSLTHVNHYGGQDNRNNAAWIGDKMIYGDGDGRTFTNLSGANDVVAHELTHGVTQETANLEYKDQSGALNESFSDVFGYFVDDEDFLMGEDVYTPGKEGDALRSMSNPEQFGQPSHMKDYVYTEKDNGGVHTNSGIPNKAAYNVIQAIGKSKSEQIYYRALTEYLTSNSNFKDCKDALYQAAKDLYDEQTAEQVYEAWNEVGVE
T2 sequence (P14756 198-498): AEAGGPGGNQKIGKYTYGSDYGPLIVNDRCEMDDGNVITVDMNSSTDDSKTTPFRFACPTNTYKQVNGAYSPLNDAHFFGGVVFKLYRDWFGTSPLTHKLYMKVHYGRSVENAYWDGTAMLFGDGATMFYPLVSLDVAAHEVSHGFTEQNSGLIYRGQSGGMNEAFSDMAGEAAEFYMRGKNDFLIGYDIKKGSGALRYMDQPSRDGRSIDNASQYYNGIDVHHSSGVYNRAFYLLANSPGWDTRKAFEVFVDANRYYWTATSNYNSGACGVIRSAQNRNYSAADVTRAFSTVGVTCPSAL
T6 sequence (P14780 107-707 limits assumed): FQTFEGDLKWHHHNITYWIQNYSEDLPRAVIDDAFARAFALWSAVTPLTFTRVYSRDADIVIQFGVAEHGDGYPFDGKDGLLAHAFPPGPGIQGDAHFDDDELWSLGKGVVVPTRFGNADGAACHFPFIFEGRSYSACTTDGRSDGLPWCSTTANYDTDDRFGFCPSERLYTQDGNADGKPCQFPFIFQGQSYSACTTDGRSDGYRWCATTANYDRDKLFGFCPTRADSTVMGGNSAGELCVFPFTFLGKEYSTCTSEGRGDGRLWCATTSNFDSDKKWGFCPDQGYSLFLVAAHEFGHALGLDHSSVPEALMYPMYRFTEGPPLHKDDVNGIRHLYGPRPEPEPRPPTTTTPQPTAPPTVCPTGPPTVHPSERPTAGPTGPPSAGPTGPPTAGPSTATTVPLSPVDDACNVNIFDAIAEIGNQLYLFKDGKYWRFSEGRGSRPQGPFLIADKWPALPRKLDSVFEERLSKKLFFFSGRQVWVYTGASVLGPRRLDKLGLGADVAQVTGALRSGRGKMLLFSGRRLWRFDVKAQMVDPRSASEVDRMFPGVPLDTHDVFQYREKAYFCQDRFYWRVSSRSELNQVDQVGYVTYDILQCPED
T7 sequence (P14780 107-707 limits assumed): as above

## Mca-Arg-Pro-Pro-Gly-Phe-Ser-Ala-Phe-Lys(Dnp)-OH (Mca-RPPGFSAFK(Dnp)-OH; SMILES COc1ccc2c(CC(=O)N[C@@H](CCCNC(=N)N)C(=O)N3CCC[C@H]3C(=O)N3CCC[C@H]3C(=O)NCC(=O)N[C@@H](Cc3ccccc3)C(=O)N[C@@H](CO)C(=O)N[C@@H](C)C(=O)N[C@@H](Cc3ccccc3)C(=O)N[C@@H](CCCCNc3ccc([N+](=O)[O-])cc3[N+](=O)[O-])C(=O)O)cc(=O)oc2c1) [ES005]
[1]
  higher activity for ES005 than ES001: ~5 fold
[1]; [11]
  Enzymatic activity: 354 ± 61 ΔF/min
[2]
  higher activity for ES005 than ES001: approximately 15 fold
[2]; [11]
  Enzymatic activity: 138 ± 4 ΔF/min
[3]
  Km: 76 ± 7 µM
[4]
  cleavage sites (MALDI-TOF MS): cleaved at three sites: Gly-Phe (m/z 642), Ser-Ala (m/z 876), and Ala-Phe (m/z 947)
[5]
  Km: 24 ± 8 µM
[6]
  Enzymatic activity: 326 ± 36 ΔF/min
[7]
  Enzymatic activity: 8 ± 2 ΔF/min
[8]
  Enzymatic activity: 18 ± 8 ΔF/min
[9]
  Enzymatic activity: 5.1 ± 0.2 ΔF/min
[10]
  Km: 6 ± 1 µM
